Source: US20120202890A1, “POLYMER-CARBOHYDRATE-LIPID CONJUGATES” (priority 2011, published 2012)
Ends that are not written are not given here.

Tests used:
[1] = Stability of peptide solution by HPLC assay; type: physicochemical
Description: Stability experiment was carried out by HPLC assay and a custom synthesized thermolabile peptide with the following sequence was used as the model compound: […] The peptide was added to selected media and sonicated for 10 minutes. The sample solutions were filtered through passed through 0.22-μm pore-size filter to remove dust particles before the HPLC assay. A Simadzu 10avp chromatography system with a Kinetex C18 (2.6 μm, 100×4.6 mm i.d.) column (Phenomenex, Torrance, Calif.) were used. The solutions were kept at 25° C. in the Autosampler during the assay and the mobile phase consisted of 0.1% of trifluoroacetic acid and acetonitrile mixture (v/v, 80/20) with a flow rate of 1.0 mL/min. The peptide peak was monitored at 210 nm and quantitated using external standard sets of the peptide.
The plots were the % recovery vs. time.

[2] = Physical state of Propofol formulations with PEG-carbohydrate-lipid (solution, suspension or emulsion); type: physicochemical
Description: A propofol solution suitable for intravenous delivery is prepared as follows. 5% (w/v) of OAPDL-PEG in Saline was added to a vessel equipped with a mixer propeller and 2% (w/v) of Propofol was added with constant mixing at ambient room temperature. Mixing was continued until the drug was visually dispersed. Equal volume of Saline was added to the vessel with adequate mixing. Mixing continued for another 30 minutes or until a homogenous solution was achieved. A sample formulation is described in Table 15.
In Example 16, less concentrated or less purified PEG-sugar-lipid will create a suspension instead of an aqueous solution. For instance, the final concentration of the PEG-carbohydrate-lipid is less than 1.5% (w/v), it will form a suspension. Similarly when the oligomer purity is 80% or less, regardless the concentration of the PEG-carbohydrate-lipid, an emulsified solution will be observed instead of a transparent solution.
Propofol as the active agent was formulated with various polymer-lipid-carbohydrate conjugates described in the present invention. At a lower of the polymer-lipid-carbohydrate conjugate concentration, i.e., OAPDL-11 (<1.5%), the formulation is a microemulsion and at a higher OAPDL-11 concentration (≧2.2%), it is a true solution.
A solution is defined as a homogenous mixture of substances with variable composition. […]

[3] = Body weight change as evidence of renal toxicity of cisplatin, intravenous dosing; type: in vivo, mice (B6D2F1); settings: animal experiments, mice
Description: Groups of four each of mixed gender mice (B6D2F1), […] and weights of 22 to 30 grams) were studied in duplicate. Each mouse was administrated cisplatin intravenously at a dose of 10 mg/kg (Table 16) and Intraperitoneally at a dose of 15 mg/kg (Table 17). The changes in body weights observed can be used as a direct evident in the renal toxicity effects.

Substance	peptide degradation ([1]; in a 50 mM of phosphate buffer, in 24 hours)	peptide still remaining ([1]; in a 2% of PEG-carbohydrate-lipid, after 24 hours)	physical state of Propofol formulation ([2]; higher OAPDL-11 concentration (≧2.2%))	physical state of Propofol formulation ([2]; lower OAPDL-11 concentration (<1.5%))	intravenous hydration effect for reducing renal toxicity of cisplatin [3]
FPKLSHGCNKHSRKHPYMTF [peptide, custom synthesized thermolabile peptide used as the model compound]	degraded significantly	more than 97%	–	–	–
oleoyi-N-(3-aminopropyl)propane-1,3-diamine-Undecaethylene glycol methyl ether Lactobionate [OAPDL-11]	–	–	true solution	microemulsion	better than free sugars
